Measured values: patent US20230220021A1, “CYCLIC PEPTIDE INHIBITORS OF PSD-95 AND USES THEREOF” (University of Copenhagen, priority 2020, published 2023)
[ ]: non-standard residue; d: D form.

Target: (7× His)-PSD-95-PDZ2 wild type (UniProt P78352)
Assay: FP competition

Chain of (7× His)-PSD-95-PDZ2 wild type (P78352 160-246): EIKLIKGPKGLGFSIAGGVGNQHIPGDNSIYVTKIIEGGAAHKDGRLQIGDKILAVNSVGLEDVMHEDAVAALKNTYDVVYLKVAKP

What does the source list for cyclo(THLETTFTGDGMPKTIRVTQ[dP]GQ) (ring closure inferred; not fully specified) [cyclic nNOS β-hairpin peptide T116M]?
Ki: 3.76 µM; Relative Ki (Ki mut/Ki WT): 2.51
